Reference: patent publication US20100196393A1 (ST LOUIS UNIVERSITY, published 2010)
No end group written: not given here.

Key:
[1] = target: low density lipoprotein receptor-related protein-1 (LRP-1), mouse (mouse) (UniProt Q91ZX7); test: cell-based or functional assay
[2] = target: beta-F1 ATPase (ATP synthase beta subunit), mouse, on brain microvessels (mouse, UniProt P56480 47-529); test: cell-based or functional assay
Chain of beta-F1 ATPase (ATP synthase beta subunit), mouse, on brain microvessels (P56480 47-529): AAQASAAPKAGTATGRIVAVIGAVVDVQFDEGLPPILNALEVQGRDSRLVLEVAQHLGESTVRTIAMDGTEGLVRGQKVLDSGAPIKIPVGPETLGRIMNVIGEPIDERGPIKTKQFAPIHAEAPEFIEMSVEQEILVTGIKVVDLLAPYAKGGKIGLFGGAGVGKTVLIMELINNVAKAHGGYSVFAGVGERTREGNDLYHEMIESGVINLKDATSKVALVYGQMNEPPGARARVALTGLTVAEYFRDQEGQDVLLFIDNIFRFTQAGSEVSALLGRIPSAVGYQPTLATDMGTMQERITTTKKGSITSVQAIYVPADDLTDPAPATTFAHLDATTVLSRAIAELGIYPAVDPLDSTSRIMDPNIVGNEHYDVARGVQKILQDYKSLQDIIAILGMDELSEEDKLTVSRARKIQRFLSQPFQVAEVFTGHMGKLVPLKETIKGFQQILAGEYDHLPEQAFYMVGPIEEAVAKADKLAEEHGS

Chain of low density lipoprotein receptor-related protein-1 (LRP-1), mouse (mouse) (Q91ZX7 20-4545): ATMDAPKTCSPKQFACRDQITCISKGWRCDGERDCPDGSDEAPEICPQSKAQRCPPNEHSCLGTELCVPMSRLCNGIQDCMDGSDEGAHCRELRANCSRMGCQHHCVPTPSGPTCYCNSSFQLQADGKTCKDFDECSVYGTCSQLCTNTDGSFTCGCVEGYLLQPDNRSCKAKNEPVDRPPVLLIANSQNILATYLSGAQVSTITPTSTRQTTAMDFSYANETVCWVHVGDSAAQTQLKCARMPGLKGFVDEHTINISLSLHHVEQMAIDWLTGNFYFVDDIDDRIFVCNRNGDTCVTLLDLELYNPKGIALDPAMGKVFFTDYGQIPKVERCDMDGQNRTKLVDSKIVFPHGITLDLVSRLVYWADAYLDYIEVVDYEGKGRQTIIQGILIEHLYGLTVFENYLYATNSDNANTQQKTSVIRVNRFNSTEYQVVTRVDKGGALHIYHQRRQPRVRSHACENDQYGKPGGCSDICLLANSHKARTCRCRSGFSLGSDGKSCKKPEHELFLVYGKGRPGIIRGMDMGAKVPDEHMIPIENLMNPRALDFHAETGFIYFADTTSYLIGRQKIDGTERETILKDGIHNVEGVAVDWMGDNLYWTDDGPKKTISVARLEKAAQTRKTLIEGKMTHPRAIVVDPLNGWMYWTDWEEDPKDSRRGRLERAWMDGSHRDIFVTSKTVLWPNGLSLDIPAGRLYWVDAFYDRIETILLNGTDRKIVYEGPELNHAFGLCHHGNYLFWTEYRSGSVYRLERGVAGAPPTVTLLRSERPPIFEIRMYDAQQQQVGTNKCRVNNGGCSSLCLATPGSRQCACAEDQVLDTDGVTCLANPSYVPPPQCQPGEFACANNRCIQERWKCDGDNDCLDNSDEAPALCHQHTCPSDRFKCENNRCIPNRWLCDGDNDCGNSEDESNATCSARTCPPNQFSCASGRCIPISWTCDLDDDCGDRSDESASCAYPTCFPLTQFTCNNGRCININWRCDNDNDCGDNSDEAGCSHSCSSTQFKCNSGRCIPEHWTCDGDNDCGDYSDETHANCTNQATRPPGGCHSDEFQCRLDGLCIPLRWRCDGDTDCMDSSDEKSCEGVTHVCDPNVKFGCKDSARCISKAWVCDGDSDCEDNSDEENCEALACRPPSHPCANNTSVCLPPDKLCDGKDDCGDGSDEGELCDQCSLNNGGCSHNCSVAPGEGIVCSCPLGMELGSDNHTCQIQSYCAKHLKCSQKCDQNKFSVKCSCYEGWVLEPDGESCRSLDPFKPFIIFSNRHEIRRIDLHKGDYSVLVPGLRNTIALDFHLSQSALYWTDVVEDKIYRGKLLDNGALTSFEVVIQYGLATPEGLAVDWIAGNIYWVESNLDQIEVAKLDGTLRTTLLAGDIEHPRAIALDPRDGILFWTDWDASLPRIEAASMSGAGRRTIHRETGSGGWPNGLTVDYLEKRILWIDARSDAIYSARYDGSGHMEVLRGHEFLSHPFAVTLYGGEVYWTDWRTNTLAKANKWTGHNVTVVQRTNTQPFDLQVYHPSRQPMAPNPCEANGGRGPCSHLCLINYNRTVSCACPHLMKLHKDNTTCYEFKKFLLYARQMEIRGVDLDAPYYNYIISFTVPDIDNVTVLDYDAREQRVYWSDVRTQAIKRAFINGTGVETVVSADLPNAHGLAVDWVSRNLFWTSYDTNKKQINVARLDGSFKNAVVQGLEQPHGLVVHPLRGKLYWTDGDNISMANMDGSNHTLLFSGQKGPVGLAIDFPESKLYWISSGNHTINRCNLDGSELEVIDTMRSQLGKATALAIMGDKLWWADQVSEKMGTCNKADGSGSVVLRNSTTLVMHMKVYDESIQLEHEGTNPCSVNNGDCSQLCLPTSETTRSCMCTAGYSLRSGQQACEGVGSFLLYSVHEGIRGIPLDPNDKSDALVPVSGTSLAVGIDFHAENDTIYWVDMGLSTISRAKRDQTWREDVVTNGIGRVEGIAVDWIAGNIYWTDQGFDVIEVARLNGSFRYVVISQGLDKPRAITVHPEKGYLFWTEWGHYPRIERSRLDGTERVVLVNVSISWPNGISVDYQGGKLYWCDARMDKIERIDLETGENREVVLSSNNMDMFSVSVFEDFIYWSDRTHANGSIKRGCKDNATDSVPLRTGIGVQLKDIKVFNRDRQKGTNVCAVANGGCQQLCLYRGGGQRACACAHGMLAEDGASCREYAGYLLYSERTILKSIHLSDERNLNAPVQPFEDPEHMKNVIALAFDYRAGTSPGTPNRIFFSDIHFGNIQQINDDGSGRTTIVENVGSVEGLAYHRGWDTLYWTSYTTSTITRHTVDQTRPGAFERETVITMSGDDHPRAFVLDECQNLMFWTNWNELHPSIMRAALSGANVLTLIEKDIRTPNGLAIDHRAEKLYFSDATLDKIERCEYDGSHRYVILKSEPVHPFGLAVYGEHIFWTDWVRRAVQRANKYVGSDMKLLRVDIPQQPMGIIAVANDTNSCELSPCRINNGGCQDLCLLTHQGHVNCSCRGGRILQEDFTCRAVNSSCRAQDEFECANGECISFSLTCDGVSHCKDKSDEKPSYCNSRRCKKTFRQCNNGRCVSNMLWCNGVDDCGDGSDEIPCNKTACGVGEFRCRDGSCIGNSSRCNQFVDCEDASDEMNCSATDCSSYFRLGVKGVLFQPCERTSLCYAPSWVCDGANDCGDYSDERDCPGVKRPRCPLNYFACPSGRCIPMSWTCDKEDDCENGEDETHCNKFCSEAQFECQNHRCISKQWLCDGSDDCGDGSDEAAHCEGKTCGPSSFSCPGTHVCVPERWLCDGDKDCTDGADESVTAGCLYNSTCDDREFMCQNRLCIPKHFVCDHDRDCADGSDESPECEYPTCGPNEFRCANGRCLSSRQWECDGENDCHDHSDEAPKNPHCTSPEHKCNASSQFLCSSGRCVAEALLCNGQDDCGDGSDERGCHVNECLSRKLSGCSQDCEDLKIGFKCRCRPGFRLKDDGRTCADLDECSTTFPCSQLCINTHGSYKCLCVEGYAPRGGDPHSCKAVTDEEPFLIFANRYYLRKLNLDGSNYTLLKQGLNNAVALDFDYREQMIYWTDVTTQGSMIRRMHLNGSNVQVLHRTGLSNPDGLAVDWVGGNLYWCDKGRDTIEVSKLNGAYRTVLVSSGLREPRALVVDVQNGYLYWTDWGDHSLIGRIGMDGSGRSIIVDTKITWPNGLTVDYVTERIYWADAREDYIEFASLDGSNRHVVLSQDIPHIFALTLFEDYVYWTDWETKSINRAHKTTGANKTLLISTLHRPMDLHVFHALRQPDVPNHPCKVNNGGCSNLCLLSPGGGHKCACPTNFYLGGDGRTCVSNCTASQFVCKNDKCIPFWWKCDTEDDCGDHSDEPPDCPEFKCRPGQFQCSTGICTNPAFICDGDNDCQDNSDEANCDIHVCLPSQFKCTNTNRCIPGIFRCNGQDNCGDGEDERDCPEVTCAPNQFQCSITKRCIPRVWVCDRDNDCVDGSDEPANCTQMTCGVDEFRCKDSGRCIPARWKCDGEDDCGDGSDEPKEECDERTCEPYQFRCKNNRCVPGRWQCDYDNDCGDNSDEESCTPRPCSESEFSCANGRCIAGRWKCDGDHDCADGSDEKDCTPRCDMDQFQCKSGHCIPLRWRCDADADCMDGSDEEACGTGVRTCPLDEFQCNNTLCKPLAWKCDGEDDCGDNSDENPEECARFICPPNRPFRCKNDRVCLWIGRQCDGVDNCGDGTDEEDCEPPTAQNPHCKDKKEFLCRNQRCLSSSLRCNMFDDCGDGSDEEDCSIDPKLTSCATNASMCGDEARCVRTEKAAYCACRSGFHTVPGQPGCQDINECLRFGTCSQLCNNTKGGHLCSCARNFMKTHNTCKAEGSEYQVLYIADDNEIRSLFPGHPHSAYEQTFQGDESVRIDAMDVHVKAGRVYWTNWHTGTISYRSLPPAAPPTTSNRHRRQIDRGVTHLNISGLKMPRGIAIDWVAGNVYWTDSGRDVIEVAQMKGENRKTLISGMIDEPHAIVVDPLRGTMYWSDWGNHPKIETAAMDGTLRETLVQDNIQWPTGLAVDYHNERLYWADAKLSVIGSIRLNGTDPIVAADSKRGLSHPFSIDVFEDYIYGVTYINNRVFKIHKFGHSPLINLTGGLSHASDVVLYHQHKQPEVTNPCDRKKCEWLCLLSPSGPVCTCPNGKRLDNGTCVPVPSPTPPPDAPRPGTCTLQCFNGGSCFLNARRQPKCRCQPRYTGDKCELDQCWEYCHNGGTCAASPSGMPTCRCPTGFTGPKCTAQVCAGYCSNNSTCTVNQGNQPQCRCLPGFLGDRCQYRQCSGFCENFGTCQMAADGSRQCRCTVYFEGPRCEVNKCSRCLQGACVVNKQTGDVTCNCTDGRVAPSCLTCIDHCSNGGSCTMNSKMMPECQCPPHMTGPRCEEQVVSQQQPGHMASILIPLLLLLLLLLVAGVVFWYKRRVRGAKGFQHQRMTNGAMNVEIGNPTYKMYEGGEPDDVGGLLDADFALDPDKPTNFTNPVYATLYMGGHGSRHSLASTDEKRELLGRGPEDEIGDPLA

Row | brain efflux of icv I-Aβ42 after two iv injections of anti-LRP-1 antisense cocktail, relative to saline treated mice [1] [%] | uptake of I-PACAP27 delivered by brain perfusion, 24 h after iv antisense cocktail against beta-F1 ATPase [2] [fold] | Molecule
1 | 0.87 | – | 42 amino acid murine amyloid beta (Aβ42) (from UniProt P12023 672-713) (peptide)
2 | – | 4 | HSDGIFTDSYSRYRKQMAVKKYLAAVL (peptide, UniProt P18509 132-158, looked up, ends and bridges not checked; also: 131I radioiodinated, residue not given here) [PACAP27 (pituitary adenylate cyclase-activating polypeptide, 27 amino acid form)]
